In the nanobody polyreactivity screen of Harvey et al. (2022):

Test: yeast display, Sf9 membrane polyspecificity reagent, FACS + sequencing; frameworks hold sequencing errors
Outline: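 Galactose induction of a Saccharomyces cerevisiae BJ5465 synthetic nanobody display library ran 36–48 hours. The cells were then stained for 1 hour at 4 °C with 10% biotinylated, detergent-solubilized Sf9 membrane reagent, pulled down on streptavidin microbeads and FACS-sorted into low and high (top ~1%) gates on expression and reagent-binding fluorescence. Labels for polyreactivity follow the gate of origin.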

Row | Sequence | polyreactivity (PSR sort gate)
1 | QVQLVESGGGLVQAGGSLRLSCAASGRTIKYYAMGWYRQAPGKESELVAAISSSGGRTNYADSVKGRFTISRDNANNTVYLQMNSLKPEDTAVYYCAARFYKTYPRMNYWGQGTQVTVSS | high polyreactivity
2 | QVQLVESGGGLVQAGGSLRLSCAASGRTILVYAMGWYRPAPGKERELVAAISSDGSTNYADSVKGRFTISRDNAMNTVYLQMNSLNPEDTAVYYCARDYYAVSYLYDYWGQGTQVTVSS | low polyreactivity
3 | QVQLVESGGGLVQAGGSLRLSCAASGRTIPSNAMGWYRQAPGKERELVAAITRSGGSTKYADSVKGRFTISRDNAKNTVYLQMNSLKPEDTAVYYCAGRYHSGSQVWYNYWGQGSQVTVSS | high polyreactivity
4 | QVQLVESGGGLVQAGGSLRLSCAASGRTIRAYTMGWSRQAPGKERELVAAISTPGGSTYYADSVKGRFTISRDNAKNTVYLQMNSLKPEDTAVYYCAADYGGPITGYEYWGQGTQVTVSS | low polyreactivity
5 | QVQLVESGGGLVQAGGSLRLSCAASGRTIRGNAMGWYRQAPGKERELVAAITRSGASTTYADSVKGRFTISRDNAKNTVYLQMNSLKPEDTAVYYCAARSGAVKYSSYYYWGQGTQVTVSS | high polyreactivity
6 | QVQLVESGGGLVQAGGSLRLSCAASGRTIRHNAMGWYRQAPGKERELVAAISRSGGSTYYADSVKGRFTISRDNAKNTVYLQMNSLKREDTAVYYCAAGYHGYDWGQGTQVTVSS | high polyreactivity
7 | QVQLVESGGGLVQAGGSLRLSCAASGRTIRRNAMGWYRQAPGKERELVAGISGSGTITYADSVKGRFTISRDNAKNTVYLQMNSLKPEDTAVYYCAARRKSFYTFYYWGQGTQVTVSS | high polyreactivity
8 | QVQLVESGGGLVQAGGSLRLSCAASGRTIRWNAMGWYRPAPGKERELVAAITSRGGSTYYADSVKGRFTISRDNAKNTVYLQMNSLKPEDTAVYYCAARRRSAQSGSYNHWGQGTQVTVSS | high polyreactivity
9 | QVQLVESGGGLVQAGGSLRLSCAASGRTIRWNDMGWYRQAPGKERELVAAITSRGGSTYYADSVKGRFTISRDNAMNTVYFQMNSLKPEDTAVYYCAKQPKPPPVTGYDYWGQGSQVTVSS | high polyreactivity
10 | QVQLVESGGGLVQAGGSLRLSCAASGRTIRWYAMGWYRPARGKERELVAVISRGGGSTTYADSVKGRFTISRDNAKNTVYLQMNSLKPEDTAVYYCAAYWGRTGYYGYDYYYWGQGTQVTVSS | high polyreactivity
11 | QVQLVESGGGLVQAGGSLRLSCAASGRTIRYNAMGWYRQAPGKERELVAAITGSGGSTYYADSVKGRFTISRDNAKNTVYLQMNSLKPEDTAVYYCNAVGIWFPIRLIVPYDYWGQGTQVTVSS | low polyreactivity
12 | QVQLVESGGGLVQAGGSLRLSCAASGRTIRYYTMGWYRQAPGKERELVAAISRSGGNTYYADSVKGRFTISRDNAKITVYLQMNSLKPEETAVYYCNKEYRHYVGRHDYWGQGTQVTVSS | high polyreactivity
13 | QVQLVESGGGLVQAGGSLRLSCAASGRTIRYYTMGWYRQAPGKETELVATITGTGSTNYADSVKGRFTISRDNAKNTVYFQMNSLKPEDTEVYYCNARWDFVGTWRIYNYWGQGTQVTVSS | high polyreactivity
14 | QVQLVESGGGLVQAGGSLRLSCAASGRTISKNAMGWYRQAPGKERELVAAISGSGGSTYYADSVKGRFTISRDNAKNTVYLQMNSLKPEDTAVYYCADRYTVSRSGYWGQGTQVTVSS | high polyreactivity
15 | QVQLVESGGGLVQAGGSLRLSCAASGRTISRNAMGWYRQAPGTERELVASISRSGGSTYYADSVKGRFTISRDNAKNTVYLQMNSLKPEETAVYYCAASYWHRRYDYWGQGTQVTVSS | high polyreactivity
16 | QVQLVESGGGLVQAGGSLRLSCAASGRTISSYAMGWSRQAPGKERELVAAISRSGGNTYYPDSVKGRFTISRDHAKNTVYLQMNSLKPEDTAVYYCNARGRTGFQADKFGYWGQGTQVTVSS | high polyreactivity
17 | QVQLVESGGGLVQAGGSLRLSCAASGRTIWRYGMGWYRQAPGKERELVAAITDSGDSTYYADSVKGRFTISRDNAKNTVYLQMNSLKPEDTAVYYCAASDVVFALNGYYPGEDDYWGQGTQVTVSS | low polyreactivity
18 | QVQLVESGGGLVQAGGSLRLSCAASGRTIWYYAMGWYRQAPGKERELVAAITYRGGSTYYADSVKGRFTISRDNVKNTVYLQMNSLKPEDTAVYFCAKENYYGGGFDYWGQGTQVTVSS | high polyreactivity
19 | QVQLVESGGGLVQAGGSLRLSCAASGRTIYGYAMGWYRQAPGKERELVARIRSGGSTNYADSVKGRFTISRDNAKNTVYLQMNSLKPEDTAVYYCAARPGAAGYKYYYWGQGTQVTVSS | high polyreactivity
20 | QVQLVESGGGLVQAGGSLRLSCAASGRTIYVYAMGWYRQAPGKERELVADINWSGGSTYYADSVKGRFTISRDNAKNTVYLQMNSLKPEDTAVYYCAADDWVRRRSHSGPEGYVYWGQGTQVTVSS | low polyreactivity

Row | Sequence | polyreactivity (PSR sort gate)
21 | QVQLVESGGGLVQAGGSLRLSCAASGRTLAKNAMGWYRQAPGKERELVAAISRRGGSTYYADSVKGRFTISRDNAKNTVYLQMNSLKPEDTAVYYCARASRQGYYQLSYDEFDYWGQGTQVTVSS | high polyreactivity
22 | QVQLVESGGGLVQAGGSLRLSCAASGRTLAPYAMGWYRQAPGKERELVAISTSGGSTYYADSVKGRFTISRDNGKNTVYLQMNSRKPEDNAVYYCAADGNSTGVYWWFYGFDYWGQGTQVTVSS | low polyreactivity
23 | QVQLVESGGGLVQAGGSLRLSCAASGRTLDSNAMGWYRQAPGKERDLVATISKRGGNTYYADSVKGRFTISRDNAKNTVYLQMNSLKPEDTAVYYCAKDVPPEYPTSSYDYWGQGTQVTVSS | low polyreactivity
24 | QVQLVESGGGLVQAGGSLRLSCAASGRTLDSNAMGWYRQAPGKERELVAAISSAGSTNYADSVKGRFTISRDNAKNTVYLQMNSLKPEDTAVYYCAADLIGSHDYWGQGTQVTVSS | low polyreactivity
25 | QVQLVESGGGLVQAGGSLRLSCAASGRTLELYVMGWYRQAPGKERELVAAIRWGTGSTYYADSVKGRFTISRDNAKNTVYLQMNSLKPEDTAVYYCAAVLRQYYRAYDYWGQGTQVTVSS | high polyreactivity
26 | QVQLVESGGGLVQAGGSLRLSCAASGRTLERYSMGWYRQAPGKEREFVAAIRWSGGSTYYADSVKGRFTISRDNAKNTVYLQMNSLKPEDTAVYYCNADWQSYYWAGDGYDYWGQGTQVTVSS | low polyreactivity
27 | QVQLVESGGGLVQAGGSLRLSCAASGRTLFGYAMGWYRQAPGKERELVAAITYGATSTYAHSVKGRFTISRDNAKNTVYLQMNSLKPEDTAVYYCNAYTPTDGFDYWGQGTQVTVSS | low polyreactivity
28 | QVQLVESGGGLVQAGGSLRLSCAASGRTLFSNAMGWYRQAPGKERELVASITSGDSTYYADSVKGRFTISRDNAKNTVYLQMNSLKPEDTSVYYCAADPSIVDGEYGYWGQGTQVTVSS | low polyreactivity
29 | QVQLVESGGGLVQAGGSLRLSCAASGRTLFYYTMGWYRQAPGKERELVAAISSGDSTNYADSVKGRFTISRDNAKNTVYLQMNRLKPEDTAVYYCATQYLLDYKKTYRTYYSPYDYWGQGTQVTVSS | low polyreactivity
30 | QVQLVESGGGLVQAGGSLRLSCAASGRTLGANAMGWYRQAPGKEREFVAAISYSDTRTYADSVKGRFTISRDNAKNTVYFQMNSLKPEDTAVYYCAADYYTWYGILYDYWGQGTQVTVSS | low polyreactivity
31 | QVQLVESGGGLVQAGGSLRLSCAASGRTLGPNPMGWYRPAPGKERELVAAITYNAGSTYYADSVKGRFTISRDNAKNTVYLQMNSLKPEDTAVYYCAARSTQKWTKYYYWGQGTQVTVSS | high polyreactivity
32 | QVQLVESGGGLVQAGGSLRLSCAASGRTLGQNAMGWYRQAPGKERELVASIRSGGITDYADSVKGRFTISRDNAKNTVYLQMNCLKPEDTAVYYCAADTYGYQGSAGGHWGQGTQVTVSS | low polyreactivity
33 | QVQLVESGGGLVQAGGSLRLSCAASGRTLGQYEMGWYRQAPGTERELVAAITSSDGITYYADSVKGRFTISRDNAKNTVYLQMNSLKPEDTAVYYCASDYPYYWYWTYLYDYCGQGTQVTVSS | low polyreactivity
34 | QVQLVESGGGLVQAGGSLRLSCAASGRTLGVYAMGWYRPAPGKERELVATITAGGSITSYADSVKGRFTISRDNAKNTVYLQMNSLKPEDTAVYYCAADVPGNYRKYRYGRASSHDYWGQGTQVTVSS | low polyreactivity
35 | QVQLVESGGGLVQAGGSLRLSCAASGRTLGYKAMVWYRQAPGKERELVAAISWSGGATYYADSVKGRFTISRDNAKNTVYLQMNSLKPEDTAVYYCAALNNRYPLYNYWGQGTQVTVSS | low polyreactivity
36 | QVQLVESGGGLVQAGGSLRLSCAASGRTLHANTMGMYRQAPGKERELVAAITRGGGNTYYADSVKGRFTISRDNAKNTVYLQMNSLKPEDTAVYYCNADVSGYLWYEYDYWGQGTQVTVSS | low polyreactivity
37 | QVQLVESGGGLVQAGGSLRLSCAASGRTLHSYAMGWYRQAPGKERELVAAISGGASTYADSVKGRFTISRDNAMITVYFQMNSLKPEDTAVYYCAADDDPVPTYEYDVWGQGTQVTVSS | low polyreactivity
38 | QVQLVESGGGLVQAGGSLRLSCAASGRTLHYYAMGWYRQAPGKERELVARINWSGGSTYYADSVKGRFTISRDNAKNTVYLQMNSLKPEDTAVYYCARTSYYWSSFDYWGQGTQVTVSS | high polyreactivity
39 | QVQLVESGGGLVQAGGSLRLSCAASGRTLIGNAMGWYRQAPGKEREFVAAITRSGGDTYYADSVKGRFTISRDNAKNTVYLQMNSLKPEDTAVYYCAADGQLHMDYWGQGTQVTVSS | high polyreactivity
40 | QVQLVESGGGLVQAGGSLRLSCAASGRTLKLNAMGWYRQAPGKERELVAAISWRGGSTYYADSVKGRFTISRDNAKNTVYLQMNSLKPEDTAVYYCAAEATAGFWSYGTYDYWGQGTQVTVSS | high polyreactivity
